Values of other authors in paper PMC3432731.

Biological target: Cyclin A (Homo sapiens) (UniProt P20248)
Chain of UniProt P20248 (P20248 whole entry): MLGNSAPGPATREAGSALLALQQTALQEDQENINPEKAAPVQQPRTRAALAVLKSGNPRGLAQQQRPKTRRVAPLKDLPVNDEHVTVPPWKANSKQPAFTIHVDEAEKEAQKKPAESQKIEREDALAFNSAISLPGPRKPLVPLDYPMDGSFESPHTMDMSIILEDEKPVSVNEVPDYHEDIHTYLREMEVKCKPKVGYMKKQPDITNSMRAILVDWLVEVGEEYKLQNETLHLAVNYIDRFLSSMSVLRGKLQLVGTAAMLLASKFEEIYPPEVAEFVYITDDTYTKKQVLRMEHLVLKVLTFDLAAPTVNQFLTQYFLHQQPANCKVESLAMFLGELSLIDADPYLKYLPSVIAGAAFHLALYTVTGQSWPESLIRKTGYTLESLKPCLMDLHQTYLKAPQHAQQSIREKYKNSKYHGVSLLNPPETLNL

Kd: 25 nM
Substance: p27 (from UniProt P46527)
